Among the data in PMC7147772, “Biochemical characterization of the Nocardia lactamdurans ACV synthetase” (PLoS ONE, 2020) are Km values, retold here.

For orientation: Km means the concentration of substrate that gives half-maximal velocity.

Common to all, as to test: ACV tripeptide formation, HPLC/MS
Assay type in all cases: biochemical, Amycolatopsis lactamdurans

One data set concerns CC(C)[C@H](N)C(=O)O. The settings on record: L-α-Aaa and L-Cys co-substrates, 5 mM ATP, 5 mM MgCl2, 2 mM DTT, CoA and Sfp, pH 7.0, 30 °C, module 3.
A further data set concerns N[C@@H](CS)C(=O)O. Conditions: L-α-Aaa and L-Val co-substrates, 5 mM ATP, 5 mM MgCl2, 2 mM DTT, CoA and Sfp, pH 7.0, 30 °C, module 2.
The test system of the next data set is N[C@@H](CCCC(=O)O)C(=O)O. The settings on record: L-Cys and L-Val co-substrates, 5 mM ATP, 5 mM MgCl2, 2 mM DTT, CoA and Sfp, pH 7.0, 30 °C, module 1.

Regarding “Nl ACVS (L-δ-(α-aminoadipoyl)-L-cysteinyl-D-valine synthetase) (Amycolatopsis lactamdurans)”, the Km with CC(C)[C@H](N)C(=O)O stood at 150 ± 4 µM; in the data set on N[C@@H](CS)C(=O)O, 40 ± 1 µM; with N[C@@H](CCCC(=O)O)C(=O)O, 640 ± 16 µM.
